Consider 4 substances from patent US20150110806A1.

The assay concerns the target CD147 expressed on human endothelial cells (hCMEC/D3, hBMEC) and human brain sections (human) (UniProt P35613). Description: cell-based or functional assay.

Regarding MBP-PilE (from UniProt P0AEX9 27-392), the bacterial adhesion to hCMEC/D3 cells (wild-type Nm, cells pretreated with 10 µg/ml MBP-pilin) was found to be 60 % reduction.

Take MBP-PilV: the bacterial adhesion to hCMEC/D3 cells (wild-type Nm, cells pretreated with 10 µg/ml MBP-pilin) came out at 50 % reduction.

The substance anti-CD147 antibody MEM-M6/1 showed an initial attachment of Nm to hBMEC cells under flow conditions (10 µg/ml antibody) of 20 % reduction.

In turn, anti-CD147 antibody MEM-M6/6 showed an initial attachment of Nm to hBMEC cells under flow conditions (10 µg/ml antibody) of 75 % inhibition.
